According to IntAct's records for PubMed 21224891:

B1: X-linked retinitis pigmentosa GTPase regulator-interacting protein 1 (Homo sapiens), Q96KN7 (parent)
chain: MSHLVDPTSGDLPVRDIDAIPLVLPASKGKNMKTQPPLSRMNREELEDSFFRLREDHMLVKELSWKQQDEIKRLRTTLLRLTAAGRDLRVAEEAAPLSETARRGQKAGWRQRLSMHQRPQMHRLQGHFHCVGPASPRRAQPRVQVGHRQLHTAGAPVPEKPKRGPRDRLSYTAPPSFKEHATNENRGEVASKPSELVSGSNSIISFSSVISMAKPIGLCMPNSAHIMASNTMQVEEPPKSPEKMWPKDENFEQRSSLECAQKAAELRASIKEKVELIRLKKLLHERNASLVMTKAQLTEVQEAYETLLQKNQGILSAAHEALLKQVNELRAELKEESKKAVSLKSQLEDVSILQMTLKEFQERVEDLEKERKLLNDNYDKLLESMLDSSDSSSQPHWSNELIAEQLQQQVSQLQDQLDAELEDKRKVLLELSREKAQNEDLKLEVTNILQKHKQEVELLQNAATISQPPDRQSEPATHPAVLQENTQIEPSEPKNQEEKKLSQVLNELQVSHAETTLELEKTRDMLILQRKINVCYQEELEAMMTKADNDNRDHKEKLERLTRLLDLKNNRIKQLEGILRSHDLPTSEQLKDVAYGTRPLSLCLETLPAHGDEDKVDISLLHQGENLFELHIHQAFLTSAALAQAGDTQPTTFCTYSFYDFETHCTPLSVGPQPLYDFTSQYVMETDSLFLHYLQEASARLDIHQAMASEHSTLAAGWICFDRVLETVEKVHGLATLIGAGGEEFGVLEYWMRLRFPIKPSLQACNKRKKAQVYLSTDVLGGRKAQEEEFRSESWEPQNELWIEITKCCGLRSRWLGTQPSPYAVYRFFTFSDHDTAIIPASNNPYFRDQARFPVLVTSDLDHYLRREALSIHVFDDEDLEPGSYLGRARVPLLPLAKNESIKGDFNLTDPAEKPNGSIQVQLDWKFPYIPPESFLKPEAQTKGKDTKDSSKISSEEEKASFPSQDQMASPEVPIEAGQYRSKRKPPHGGERKEKEHQVVSYSRRKHGKRIGVQGKNRMEYLSLNILNGNTPEQVNYTEWKFSETNSFIGDGFKNQHEEEEMTLSHSALKQKEPLHPVNDKESSEQGSEVSEAQTTDSDDVIVPPMSQKYPKADSEKMCIEIVSLAFYPEAEVMSDENIKQVYVEYKFYDLPLSETETPVSLRKPRAGEEIHFHFSKVIDLDPQEQQGRRRFLFDMLNGQDPDQGHLKFTVVSDPLDEEKKECEEVGYAYLQLWQILESGRDILEQELDIVSPEDLATPIGRLKVSLQAAAVLHAIYKEMTEDLFS
partner: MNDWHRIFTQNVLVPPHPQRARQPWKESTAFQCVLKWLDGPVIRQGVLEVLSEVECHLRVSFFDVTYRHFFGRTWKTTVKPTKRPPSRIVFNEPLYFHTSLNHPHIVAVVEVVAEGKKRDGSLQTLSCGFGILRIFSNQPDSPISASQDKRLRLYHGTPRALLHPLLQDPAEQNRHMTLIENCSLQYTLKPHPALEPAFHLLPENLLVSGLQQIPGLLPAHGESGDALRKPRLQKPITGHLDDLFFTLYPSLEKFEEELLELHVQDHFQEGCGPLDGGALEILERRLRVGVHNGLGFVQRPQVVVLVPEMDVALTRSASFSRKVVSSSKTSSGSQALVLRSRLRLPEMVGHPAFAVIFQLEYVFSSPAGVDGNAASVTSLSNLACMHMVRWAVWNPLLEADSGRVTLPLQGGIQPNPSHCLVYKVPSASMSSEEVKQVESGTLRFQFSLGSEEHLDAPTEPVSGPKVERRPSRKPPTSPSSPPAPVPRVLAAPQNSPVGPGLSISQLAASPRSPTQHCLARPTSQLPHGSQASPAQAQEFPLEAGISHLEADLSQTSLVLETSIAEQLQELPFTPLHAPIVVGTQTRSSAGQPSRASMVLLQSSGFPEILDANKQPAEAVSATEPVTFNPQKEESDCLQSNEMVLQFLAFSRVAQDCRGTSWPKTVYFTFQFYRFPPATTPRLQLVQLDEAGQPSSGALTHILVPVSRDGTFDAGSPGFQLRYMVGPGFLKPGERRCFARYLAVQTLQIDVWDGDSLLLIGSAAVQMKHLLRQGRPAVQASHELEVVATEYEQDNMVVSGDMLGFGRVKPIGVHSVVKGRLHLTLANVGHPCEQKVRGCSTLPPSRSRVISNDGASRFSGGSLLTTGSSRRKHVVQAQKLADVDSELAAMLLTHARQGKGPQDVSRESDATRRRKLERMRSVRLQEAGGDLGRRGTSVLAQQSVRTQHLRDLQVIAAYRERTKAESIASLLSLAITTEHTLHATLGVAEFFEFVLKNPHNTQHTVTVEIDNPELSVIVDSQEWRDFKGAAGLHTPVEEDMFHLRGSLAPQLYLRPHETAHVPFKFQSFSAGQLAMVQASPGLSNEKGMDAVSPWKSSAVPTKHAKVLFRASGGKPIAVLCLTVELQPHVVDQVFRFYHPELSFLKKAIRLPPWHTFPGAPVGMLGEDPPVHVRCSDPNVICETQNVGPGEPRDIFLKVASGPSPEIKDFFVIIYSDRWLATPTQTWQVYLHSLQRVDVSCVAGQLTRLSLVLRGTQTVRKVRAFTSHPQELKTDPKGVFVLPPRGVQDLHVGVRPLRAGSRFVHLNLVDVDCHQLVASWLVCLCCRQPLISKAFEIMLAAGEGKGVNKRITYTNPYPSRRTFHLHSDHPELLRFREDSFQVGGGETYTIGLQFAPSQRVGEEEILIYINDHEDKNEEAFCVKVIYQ

Variants of: B1
Settings: with nphp4_human NPHP4, O75161

Row | Variant | effect of a mutation on the interaction
1 | A635G | decreasing interaction strength
2 | T806I | decreasing interaction strength
3 | R598Q | decreasing interaction strength
4 | Q589H | with no effect
5 | A837G | decreasing interaction strength
6 | R812H | increasing interaction strength
7 | I838V | decreasing interaction strength
8 | A764V | with no effect

Variants of: B1
Settings: with nphp4_human NPHP4, O75161
Remark: another data set of the same source

Row | Variant | effect of a mutation on the interaction
9 | R598Q | disrupting interaction strength
